From patent EP2123670B1 (Bioxodes SA, dated 2017)

How the values were obtained:
factor IX = molecular target: T1, factor IX (UniProt P00740 47-461); assay: SPR (BIAcore X), Ir-CPI immobilised at 1500 RU on CM5, factor injected
T1 construct: Zymogen; also called fIX

factor X = molecular target: T2, factor X (UniProt P00742 41-488); assay: as above
T2 construct: Zymogen; also called fX

thrombin = molecular target: T3, thrombin (UniProt P00734 328-622); assay: as above
T3 construct: also called factor IIa; IIa

factor VIIa = molecular target: T4, factor VIIa (UniProt P08709 61-466); assay: as above
T4 construct: also called fVIIa; FVIIa
T4 sequence (looked up): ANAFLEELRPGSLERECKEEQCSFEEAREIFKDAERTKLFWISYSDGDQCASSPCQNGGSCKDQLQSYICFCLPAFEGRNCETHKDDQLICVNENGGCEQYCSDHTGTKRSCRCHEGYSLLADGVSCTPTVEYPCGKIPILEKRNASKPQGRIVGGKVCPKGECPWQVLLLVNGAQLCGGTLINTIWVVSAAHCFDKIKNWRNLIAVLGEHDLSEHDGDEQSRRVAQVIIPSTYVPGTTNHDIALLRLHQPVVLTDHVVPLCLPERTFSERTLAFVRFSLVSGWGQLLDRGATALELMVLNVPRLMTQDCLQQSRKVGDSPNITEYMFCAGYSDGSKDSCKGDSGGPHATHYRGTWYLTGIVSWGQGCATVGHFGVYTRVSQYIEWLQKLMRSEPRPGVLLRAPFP

t-PA = t-PA (UniProt P00750 36-562); assay: as above
plasminogen = molecular target: T5, plasminogen (UniProt P00747 20-810, limits assumed); assay: as above
T5 construct: Zymogen

[1] = molecular target: T6, high molecular weight kininogen (UniProt P01042 19-644); assay: as above
T6 construct: also called HMWK
T6 sequence (looked up): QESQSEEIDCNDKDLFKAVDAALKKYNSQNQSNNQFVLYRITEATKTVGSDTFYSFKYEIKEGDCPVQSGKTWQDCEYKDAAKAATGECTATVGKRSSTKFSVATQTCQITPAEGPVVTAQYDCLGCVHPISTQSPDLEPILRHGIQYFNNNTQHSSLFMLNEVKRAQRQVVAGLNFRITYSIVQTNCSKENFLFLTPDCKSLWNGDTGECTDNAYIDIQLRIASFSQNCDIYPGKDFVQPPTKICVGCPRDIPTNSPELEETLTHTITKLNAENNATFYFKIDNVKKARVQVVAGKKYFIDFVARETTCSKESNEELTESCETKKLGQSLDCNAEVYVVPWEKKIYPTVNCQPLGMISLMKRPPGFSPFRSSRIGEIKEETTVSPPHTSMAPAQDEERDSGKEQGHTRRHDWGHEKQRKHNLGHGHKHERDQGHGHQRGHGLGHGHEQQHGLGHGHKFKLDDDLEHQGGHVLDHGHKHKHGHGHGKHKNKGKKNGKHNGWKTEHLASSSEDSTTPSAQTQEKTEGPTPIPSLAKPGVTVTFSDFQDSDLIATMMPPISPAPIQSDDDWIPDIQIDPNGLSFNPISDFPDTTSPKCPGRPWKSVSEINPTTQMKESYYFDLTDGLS

plasma kallikrein [2] = molecular target: T7, plasma kallikrein (UniProt P03952 20-638); assay: SPR, Ir-CPI immobilised; two-state model, forward rate of the conformation change
T7 construct: The active enzyme is the cleaved two-chain form of the precursor

factor XIa [3] = molecular target: T8, factor XIa (UniProt P03951 19-625); assay: as above
T8 construct: also called fXIa; FXIa

plasmin [4] = molecular target: T9, plasmin (UniProt P00747 97-810); assay: as above
plasma kallikrein [5] = molecular target: T7, plasma kallikrein; assay: SPR, Ir-CPI immobilised; two-state model, backward rate of the conformation change
factor XIa [6] = molecular target: T8, factor XIa; assay: as above
plasmin [7] = molecular target: T9, plasmin; assay: as above
plasma kallikrein [8] = molecular target: T7, plasma kallikrein; assay: SPR, Ir-CPI immobilised; two-state model, global equilibrium constant K = ka1ka2/kd1kd2
factor XIa [9] = molecular target: T8, factor XIa; assay: as above
plasmin [10] = molecular target: T9, plasmin; assay: as above
plasma kallikrein [11] = molecular target: T7, plasma kallikrein; assay: SPR (BIAcore X), Ir-CPI immobilised at about 200 RU, factor injected at 5-300 nM; two-state model, ka1 (first step)
factor XIa [12] = molecular target: T8, factor XIa; assay: as above
plasmin [13] = molecular target: T9, plasmin; assay: as above
plasma kallikrein [14] = molecular target: T7, plasma kallikrein; assay: SPR (BIAcore X), Ir-CPI immobilised at about 200 RU, factor injected at 5-300 nM; two-state model, kd1 (first step)
factor XIa [15] = molecular target: T8, factor XIa; assay: as above
plasmin [16] = molecular target: T9, plasmin; assay: as above

T9 sequence (P00747 97-810 limits assumed): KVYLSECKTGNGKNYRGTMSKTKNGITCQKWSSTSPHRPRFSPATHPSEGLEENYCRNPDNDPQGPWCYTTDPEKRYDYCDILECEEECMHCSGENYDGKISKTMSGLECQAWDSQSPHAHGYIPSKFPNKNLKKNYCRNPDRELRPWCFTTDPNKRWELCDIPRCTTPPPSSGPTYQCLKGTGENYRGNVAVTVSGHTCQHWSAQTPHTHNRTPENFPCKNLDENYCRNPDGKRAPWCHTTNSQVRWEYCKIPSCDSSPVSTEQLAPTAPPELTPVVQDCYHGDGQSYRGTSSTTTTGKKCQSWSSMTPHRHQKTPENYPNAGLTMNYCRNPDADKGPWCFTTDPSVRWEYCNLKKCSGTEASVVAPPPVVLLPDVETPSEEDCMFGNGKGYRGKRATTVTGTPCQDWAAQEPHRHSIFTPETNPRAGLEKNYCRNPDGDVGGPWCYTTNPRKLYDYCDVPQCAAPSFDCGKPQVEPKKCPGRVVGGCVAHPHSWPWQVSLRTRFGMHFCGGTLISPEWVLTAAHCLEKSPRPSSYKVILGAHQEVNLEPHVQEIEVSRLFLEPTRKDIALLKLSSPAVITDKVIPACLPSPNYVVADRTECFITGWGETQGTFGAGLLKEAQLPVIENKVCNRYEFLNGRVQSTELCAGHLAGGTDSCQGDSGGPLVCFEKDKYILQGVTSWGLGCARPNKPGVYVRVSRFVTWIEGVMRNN
T7 sequence (P03952 20-638 limits assumed): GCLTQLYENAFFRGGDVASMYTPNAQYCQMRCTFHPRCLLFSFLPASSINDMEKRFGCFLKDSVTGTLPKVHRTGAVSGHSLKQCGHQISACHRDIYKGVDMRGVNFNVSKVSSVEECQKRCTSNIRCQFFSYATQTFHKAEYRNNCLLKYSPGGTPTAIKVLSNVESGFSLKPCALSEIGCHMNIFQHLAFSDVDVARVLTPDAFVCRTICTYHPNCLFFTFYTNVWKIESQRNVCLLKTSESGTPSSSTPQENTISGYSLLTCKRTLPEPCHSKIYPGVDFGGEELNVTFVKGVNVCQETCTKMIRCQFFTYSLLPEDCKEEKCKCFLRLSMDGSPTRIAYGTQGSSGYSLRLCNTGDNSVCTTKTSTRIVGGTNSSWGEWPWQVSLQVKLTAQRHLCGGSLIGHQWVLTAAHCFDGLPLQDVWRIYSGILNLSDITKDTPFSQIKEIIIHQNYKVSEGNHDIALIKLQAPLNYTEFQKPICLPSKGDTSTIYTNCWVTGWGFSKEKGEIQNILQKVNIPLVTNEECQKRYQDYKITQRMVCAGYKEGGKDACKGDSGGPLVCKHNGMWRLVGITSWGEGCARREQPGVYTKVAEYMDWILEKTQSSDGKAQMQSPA
T5 sequence (P00747 20-810 limits assumed): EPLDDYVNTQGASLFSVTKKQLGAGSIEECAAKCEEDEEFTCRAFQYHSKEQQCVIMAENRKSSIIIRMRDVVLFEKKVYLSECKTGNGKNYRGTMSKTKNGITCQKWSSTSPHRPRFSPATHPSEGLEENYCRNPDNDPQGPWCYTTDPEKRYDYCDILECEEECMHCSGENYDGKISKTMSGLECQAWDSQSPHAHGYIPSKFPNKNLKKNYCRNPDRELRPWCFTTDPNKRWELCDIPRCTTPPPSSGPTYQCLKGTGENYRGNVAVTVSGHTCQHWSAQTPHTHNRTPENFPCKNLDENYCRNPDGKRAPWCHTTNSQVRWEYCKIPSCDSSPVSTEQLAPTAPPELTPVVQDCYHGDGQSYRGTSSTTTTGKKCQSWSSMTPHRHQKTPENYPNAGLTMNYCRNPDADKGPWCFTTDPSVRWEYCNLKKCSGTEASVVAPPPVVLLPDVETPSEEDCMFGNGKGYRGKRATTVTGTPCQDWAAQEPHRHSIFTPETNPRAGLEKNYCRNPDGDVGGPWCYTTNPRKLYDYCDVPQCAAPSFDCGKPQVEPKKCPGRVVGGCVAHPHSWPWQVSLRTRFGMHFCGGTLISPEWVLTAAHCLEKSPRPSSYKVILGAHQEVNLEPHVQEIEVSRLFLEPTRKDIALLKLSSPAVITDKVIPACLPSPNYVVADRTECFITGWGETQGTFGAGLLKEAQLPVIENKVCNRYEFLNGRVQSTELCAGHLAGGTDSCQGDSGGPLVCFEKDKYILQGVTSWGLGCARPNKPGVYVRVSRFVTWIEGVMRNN
Sequence of t-PA (P00750 36-562 limits assumed): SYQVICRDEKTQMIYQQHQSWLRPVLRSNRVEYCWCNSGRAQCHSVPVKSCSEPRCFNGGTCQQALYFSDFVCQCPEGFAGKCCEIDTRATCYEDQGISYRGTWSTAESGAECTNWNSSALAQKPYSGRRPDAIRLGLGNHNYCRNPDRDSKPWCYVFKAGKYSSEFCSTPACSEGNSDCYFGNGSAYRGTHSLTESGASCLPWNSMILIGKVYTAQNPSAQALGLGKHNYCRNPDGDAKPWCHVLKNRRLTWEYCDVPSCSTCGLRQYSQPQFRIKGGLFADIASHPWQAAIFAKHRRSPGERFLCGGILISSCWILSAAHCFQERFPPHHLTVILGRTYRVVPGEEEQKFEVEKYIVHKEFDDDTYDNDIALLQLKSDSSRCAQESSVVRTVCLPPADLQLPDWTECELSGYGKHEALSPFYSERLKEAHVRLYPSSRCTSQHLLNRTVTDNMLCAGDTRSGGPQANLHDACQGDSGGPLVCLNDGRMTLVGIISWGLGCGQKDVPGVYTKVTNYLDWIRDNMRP

B1: Ir-CPI (other)
chain: ANHKGRGRPAKCKLPPDDGPCRARIPSYYFDRKTKTCKEFMYGGCEGNENNFENITTCQEECRAKKV
notes: Expressed in E. coli as a GST fusion (pGEX-6P-1), released with PreScission protease and purified by gel filtration; Immobilised on a CM5 chip by amine coupling in the SPR assays; also called recombinant Ir-CPI
B1: no binding (tested: 100 nM) (factor IX); no binding (tested: 100 nM) (factor X); no binding (tested: 100 nM) (thrombin). B1: no binding (tested: 100 nM) (factor VIIa); no binding (tested: 100 nM) (t-PA); no binding (tested: 100 nM) (plasminogen). For the same binder, the binding result [1] was “no binding (tested: 100 nM)”, the ka2 (plasma kallikrein [2]) was 0.00834 s⁻¹ and the ka2 (factor XIa [3]) was 0.0298 s⁻¹. The ka2 (plasmin [4]) was 0.00582 s⁻¹, the kd2 (plasma kallikrein [5]) was 0.00142 s⁻¹ and the kd2 (factor XIa [6]) was 0.00232 s⁻¹. For the same binder, the kd2 (plasmin [7]) was 0.00614 s⁻¹, the Ka (plasma kallikrein [8]) was 4.51e+06 M⁻¹ and the Ka (factor XIa [9]) was 3.83e+08 M⁻¹. The Ka (plasmin [10]) was 3.3e+08 M⁻¹, the kon (plasma kallikrein [11]) was 34900 M⁻¹ s⁻¹ and the kon (factor XIa [12]) was 2.31e+06 M⁻¹ s⁻¹. The kon (plasmin [13]) was 900000 M⁻¹ s⁻¹, the koff (plasma kallikrein [14]) was 0.0532 s⁻¹ and the koff (factor XIa [15]) was 0.102 s⁻¹. For the same binder, the koff (plasmin [16]) was 0.00535 s⁻¹.
